Measurements published in publication PMC10953399, “Escherichia coli DNA repair helicase Lhr is also a uracil‐DNA glycosylase”.

Legend:
Lhr-CTD = target: T1, Lhr-CTD (Escherichia coli MG1655, UniProt P30015 876-1538); assay: EMSA; 5 mM EDTA; 12.5-200 nM protein, 12.5 nM DNA; no stable complex; 20 mM Tris pH 7.5, 10% glycerol, 100 ug/mL BSA, 25 mM DTT, 5 mM EDTA, 12.5 nM Cy5-DNA; 37 C 20 min then ice 10 min; 5% acrylamide TBE gel; conditions: protein: recombinant; tags: pNH-TrxT vector (GU269914.1); label: 5' Cy5; single strand
T1 sequence: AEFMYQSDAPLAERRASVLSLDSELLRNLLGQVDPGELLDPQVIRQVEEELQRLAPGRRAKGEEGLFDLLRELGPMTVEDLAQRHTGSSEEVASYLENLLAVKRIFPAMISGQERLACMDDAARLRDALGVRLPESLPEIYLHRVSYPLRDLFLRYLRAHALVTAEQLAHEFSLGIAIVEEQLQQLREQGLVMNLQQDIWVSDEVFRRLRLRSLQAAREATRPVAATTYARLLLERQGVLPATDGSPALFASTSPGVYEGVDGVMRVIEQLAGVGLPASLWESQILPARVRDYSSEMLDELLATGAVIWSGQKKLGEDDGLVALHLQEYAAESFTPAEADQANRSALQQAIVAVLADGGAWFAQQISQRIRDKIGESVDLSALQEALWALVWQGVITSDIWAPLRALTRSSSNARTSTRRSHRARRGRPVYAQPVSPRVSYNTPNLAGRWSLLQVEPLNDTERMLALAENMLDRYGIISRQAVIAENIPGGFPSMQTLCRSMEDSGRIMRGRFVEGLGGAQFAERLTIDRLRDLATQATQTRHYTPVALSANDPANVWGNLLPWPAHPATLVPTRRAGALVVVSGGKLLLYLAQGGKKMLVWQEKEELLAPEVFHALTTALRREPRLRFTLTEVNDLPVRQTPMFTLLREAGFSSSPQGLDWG

Lhr = Lhr (Escherichia coli MG1655, UniProt P30015 1-1538); assay: EMSA; 5 mM EDTA; 12.5-200 nM protein, 12.5 nM DNA; 20 mM Tris pH 7.5, 10% glycerol, 100 ug/mL BSA, 25 mM DTT, 5 mM EDTA, 12.5 nM Cy5-DNA; 37 C 20 min then ice 10 min; 5% acrylamide TBE gel; conditions: protein: recombinant; tags: His6; label: 5' Cy5; single strand

Binder: TCGGATCCTCTAGACAGCTCCATGATCACTGGCACTGGTAGAATTCGGC (ssDNA) [Cy5-ssDNA (EMSA)]
- binding result (Lhr-CTD): no binding
- binding result (Lhr): binds
